Laboratory results from patent US20190351025A1 (HUDSON INSTITUTE OF MEDICAL RESEARCH, published 2019).
One block for each molecule: values may come before it.

Experiments:
[1] = target: mIFNAR2-ECD C94S (extracellular domain of mouse IFNAR2, His-tagged) (mouse) (UniProt O35664); experiment: SPR, ProteOn XPR36, His-tagged receptor on HTG chip, Langmuir model, mean of 10 experiments
huIFNAR2 [2] = target: T1, huIFNAR2 (human, UniProt P48551 27-243, limits assumed); experiment: microscale thermophoresis (MST), E. coli expressed huIFNε
T1 sequence (looked up): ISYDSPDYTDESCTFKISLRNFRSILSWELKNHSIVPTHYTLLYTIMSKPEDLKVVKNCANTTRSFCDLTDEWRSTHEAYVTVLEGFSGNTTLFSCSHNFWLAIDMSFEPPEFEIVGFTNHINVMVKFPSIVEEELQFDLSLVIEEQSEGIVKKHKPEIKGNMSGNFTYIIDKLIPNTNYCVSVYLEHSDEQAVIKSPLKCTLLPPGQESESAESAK

huIFNAR2 [3] = target: T1, huIFNAR2; experiment: microscale thermophoresis (MST)
[4] = target: mIFNAR2-ECD C94S (extracellular domain of mouse IFNAR2, His-tagged) (mouse) (UniProt O35664); experiment: SPR, ProteOn XPR36, His-tagged receptor on HTG chip
[5] = target: T2, mIFNAR1-ECD (extracellular domain of mouse IFNAR1, His-tagged) (mouse, UniProt P33896 27-429); experiment: SPR, ProteOn XPR36, His-tagged receptor on HTG chip, Langmuir model, n=9 experiments
T2 construct: extracellular domain; The tag is placed at the C-terminus here only for lack of information; not shown: His-tag
T2 sequence (looked up): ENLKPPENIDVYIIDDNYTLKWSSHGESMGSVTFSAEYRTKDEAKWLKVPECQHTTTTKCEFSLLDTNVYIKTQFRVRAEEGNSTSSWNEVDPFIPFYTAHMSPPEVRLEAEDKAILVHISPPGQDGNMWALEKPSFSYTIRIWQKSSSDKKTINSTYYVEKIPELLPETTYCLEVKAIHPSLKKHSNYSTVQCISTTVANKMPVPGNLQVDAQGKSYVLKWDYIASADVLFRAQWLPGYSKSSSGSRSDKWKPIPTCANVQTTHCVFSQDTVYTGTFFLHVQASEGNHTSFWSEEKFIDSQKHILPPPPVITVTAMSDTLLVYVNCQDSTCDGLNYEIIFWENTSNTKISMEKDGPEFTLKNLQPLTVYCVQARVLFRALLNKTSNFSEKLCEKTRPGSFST
Protocol: (§1) For Surface Plasmon Resonance (SPR), mIFNAR1-ECD and rmIFN were expressed and purified from mammalian cell and insect cell culture, respectively, as previously described (Stifter et al. (2014) Protein Expr Purif 94:7-14); mIFNAR2-ECDC94S and rmIFN 1 were expressed and purified from mammalian cell culture also as previously described (de Weerd et al. (2013) supra). huIFNε is produced in a similar manner All SPR experiments were carried out on a ProteOn XPR36 (Bio-Rad Labs) using a HTG chip for His-tagged proteins and TBS as the running buffer. mIFNAR1-ECD and mIFNAR2-ECDC94S were immobilized to the nickel activated chip via the His-tags after dilution to […] in TBS. All IFNs (rmIFN 1, rmIFN and rmIFN) were diluted in TBS to various concentrations ranging from 40 nM to […]. All data were referenced according to the manufacturer's instructions (Bio-Rad) and analyzed using the Langmuir binding model. Data were considered for inclusion in the analysis only if the Chit value (the measure of error between measured and fitted values) was less than 10% of the Rₘₐₓ as per the manufacturer's instructions (Bio-Rad). Kₐ (1/Ms), Kd (1/s) and KD (nM) were calculated by the ProteOn Manager software and are represented as mean (+SD) from at least triplicate experiments. Significance was determined using one-way ANOVA with Dunnett's multiple comparisons testing. […]

[6] = target: T2, mIFNAR1-ECD (extracellular domain of …); experiment: SPR, ProteOn XPR36, His-tagged receptor on HTG chip
Protocol: as §1

[7] = target: T2, mIFNAR1-ECD (extracellular domain of …); experiment: SPR, ProteOn XPR36, His-tagged receptor on HTG chip, Langmuir model, n=10 experiments
Protocol: as §1

Sequence of mIFNAR2-ECD C94S (extracellular domain of mouse IFNAR2, His-tagged) (mouse) (O35664 22-242, stated change not applied): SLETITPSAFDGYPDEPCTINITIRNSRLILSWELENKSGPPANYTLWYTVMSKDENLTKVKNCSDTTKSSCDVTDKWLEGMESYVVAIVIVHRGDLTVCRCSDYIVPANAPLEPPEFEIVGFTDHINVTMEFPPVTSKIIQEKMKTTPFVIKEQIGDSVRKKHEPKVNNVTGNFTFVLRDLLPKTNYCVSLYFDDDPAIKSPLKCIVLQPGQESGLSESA

Kd [1]: 1.68 nM
Molecule: recombinant murine interferon alpha 1 (rmIFNα1) (from UniProt P01572 24-189) (ligand)

Kd (huIFNAR2 [2]): 8190 nM
B1: human interferon epsilon (huIFNε), E. coli expressed and refolded (ligand)
chain: LDLKLIIFQQRQVNQESLKLLNKLQTLSIQQCLPHRKNFLLPQKSLSPQQYQKGHTLAILHEMLQQIFSLFRANISLDGWEENHTEKFLIQLHQQLEYLEALMGLEAEKLSGTLGSDNLRLQVKMYFRRIHDYLENQDYSTCAWAIVQVEISRCLFFVFSLTEKLSKQGRPLNDMKQELTTEFRSPRSA
notes: also called hIFN; rhIFN

Kd (huIFNAR2 [3]): 0.25 nM
B2: huIFNβ (ligand, human, UniProt P01574 22-187, looked up)
chain: MSYNLLGFLQRSSNFQCQKLLWQLNGRLEYCLKDRMNFDIPEEIKQLQQFQKEDAALTIYEMLQNIFAIFRQDSSSTGWNETIVENLLANVYHQINHLKTVLEEKLEKEDFTRGKLMSSLHLKRYYGRILHYLKAKEYSHCAWTIVRVEILRNFYFINRLTGYLRN
notes: Comparator in the MST measurement; The source of the protein is not clearly stated; also called rhuIFNβ

fold lower affinity than rmIFNα1 [4]: > 1000 fold | Kd [5]: 556 nM | fold lower affinity than the rmIFNβ-IFNAR1-ECD interaction [6]: ~200 fold
B3: recombinant murine interferon epsilon (rmIFNε) (ligand)
chain: LEPKRIPFQLWMNRESLQLLKPLPSSSVQQCLAHRKNFLLPQQPVSPHQYQEGQVLAVVHEILQQIFTLLQTHGTMGIWEENHIEKVLAALHRQLEYVESLGGLNAAQKSGGSSAQNLRLQIKAYFRRIHDYLENQRYSSCAWIIVQTEIHRCMFFVFRFTTWLSRQDPDP
notes: also called muIFNε; MuIFNε

Kd [7]: 2.45 nM
B4: recombinant murine interferon beta (rmIFNβ) (ligand, UniProt P01575 22-182, looked up)
chain: INYKQLQLQERTNIRKCQELLEQLNGKINLTYRADFKIPMEMTEKMQKSYTAFAIQEMLQNVFLVFRNNFSSTGWNETIVVRLLDELHQQTVFLKTVLEEKQEERLTWEMSSTALHLKSYYWRVQRYLKLMKYNSYAWMVVRAEIFRNFLIIRRLTRNFQN
notes: Printed as 'rmIFN' with the Greek letter lost
